In publication PMC4422724:

Experiments:
[1] = target: G146V mutant Dictyostelium actin (Dictyostelium); experiment: pyrene fluorescence depolymerization assay; 2 μM Mg-actin (20% pyrene-labeled) polymerized overnight at 22°C with 100 mM KCl, 2 mM MgCl2, 0.5 mM ATP; depolymerization induced with 30 μM latrunculin A; double-exponential fit; filament to monomers
[2] = target: G146V mutant Dictyostelium actin (Dictyostelium); experiment: pyrene fluorescence depolymerization assay; 2 μM Mg-actin (20% pyrene-labeled) polymerized for 12 min at 22°C with 100 mM KCl, 2 mM MgCl2, 0.5 mM ATP; depolymerization induced with 30 μM latrunculin A; double-exponential fit; filament to monomers
[3] = target: G146V mutant Dictyostelium actin (Dictyostelium); experiment: co-sedimentation; critical concentration by pelleting assay: 0.5-3.0 μM actin polymerized in F-buffer (10 mM HEPES pH 7.4, 2 mM MgCl2, 100 mM KCl, 0.5 mM ATP, 0.5 mM DTT) for 3 hr at 21°C, ultracentrifuged, protein in pellets determined; monomer to filament

G146V mutant Dictyostelium actin (natural protein)
τf (depolymerization, fast-depolymerization population) [1]: 27.4 min
τs (depolymerization, slow-depolymerization population) [1]: 98 min
τf (depolymerization, fast-depolymerization population) [2]: 20.1 min
τs (depolymerization, slow-depolymerization population) [2]: 169 min
critical concentration [3]: 0.51 µM
